The labels stand for the following.
B1: Fc H8L1 (TSC316) (Fc fusion)
chain: EPKSSDKTHTCPPCPAPEAAGAPSVFLFPPKPKDTLMISRTPEVTCVVVDVSHEDPEVKFNWYVDGVEVHNAKTKPREEQYNSTYRVVSVLTVLHQDWLNGKAYACAVSNKALPAPIEKTISKAKGQPREPQVYTLPPSRDELTKNQVSLTCLVKGFYPSDIAVEWESNGQPENNYKTTPPVLDSDGSFFLYSKLTVDKSRWQQGNVFSCSVMHEALHNHYTQKSLSLSPGQRHNNSSLNTGTQMAGHSPNSQVQLVQSGAEVKKPGASVKVSCKASGYTFTRSTMHWVRQAPGQGLEWMGYINPSSAYTNYNQKFKDRVTMTRDTSTSTVYMELSSLRSEDTAVYYCARPQVHYDYNGFPYWGQGTLVTVSSGGGGSGGGGSGGGGSGGGGSDIQMTQSPSSLSASVGDRVTMTCSASSSVSYMNWYQQKPGKAPKRWIYDSSKLASGVPARFSGSGSGTDYTLTISSLQPEDFATYYCQQWSRNPPTFGGGTKLQITSSS
B2: Fc H7L1 (TSC313) (Fc fusion)
chain: B1 chain with T328I, V331A, S337R, E341D
B3: Fc DRA222 (TSC311 or TSC312) (Fc fusion)
chain: EPKSSDKTHTCPPCPAPEAAGAPSVFLFPPKPKDTLMISRTPEVTCVVVDVSHEDPEVKFNWYVDGVEVHNAKTKPREEQYNSTYRVVSVLTVLHQDWLNGKAYACAVSNKALPAPIEKTISKAKGQPREPQVYTLPPSRDELTKNQVSLTCLVKGFYPSDIAVEWESNGQPENNYKTTPPVLDSDGSFFLYSKLTVDKSRWQQGNVFSCSVMHEALHNHYTQKSLSLSPGQRHNNSSLNTGTQMAGHSPNSQVQLVESGGGVVQPGRSLRLSCKASGYTFTRSTMHWVRQAPGQGLEWIGYINPSSAYTNYNQKFKDRFTISADKSKSTAFLQMDSLRPEDTGVYFCARPQVHYDYNGFPYWGQGTPVTVSSGGGGSGGGGSGGGGSAQDIQMTQSPSSLSASVGDRVTMTCSASSSVSYMNWYQQKPGKAPKRWIYDSSKLASGVPARFSGSGSGTDYTLTISSLQPEDFATYYCQQWSRNPPTFGGGTKLQITSSS

Numbering of substitutions follows the chain as printed.

Chain of human CD3 (P07766 23-207, chain 1 of 4): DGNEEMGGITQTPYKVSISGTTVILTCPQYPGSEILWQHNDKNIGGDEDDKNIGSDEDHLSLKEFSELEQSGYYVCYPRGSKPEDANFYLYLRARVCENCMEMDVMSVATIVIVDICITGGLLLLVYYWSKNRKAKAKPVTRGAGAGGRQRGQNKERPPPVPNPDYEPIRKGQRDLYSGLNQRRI
Chain of human CD3 (P09693 23-182, chain 2 of 4): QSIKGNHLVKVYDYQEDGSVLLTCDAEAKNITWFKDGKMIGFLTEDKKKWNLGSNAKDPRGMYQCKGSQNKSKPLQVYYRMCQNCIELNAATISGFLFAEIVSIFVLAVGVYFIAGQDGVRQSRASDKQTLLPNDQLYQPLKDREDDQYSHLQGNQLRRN
Chain of human CD3 (P04234 22-171, chain 3 of 4): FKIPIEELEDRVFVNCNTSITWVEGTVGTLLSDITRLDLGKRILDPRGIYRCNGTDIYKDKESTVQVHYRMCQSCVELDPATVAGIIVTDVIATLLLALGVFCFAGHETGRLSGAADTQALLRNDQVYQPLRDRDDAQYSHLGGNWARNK
Chain of human CD3 (P20963 22-164, chain 4 of 4): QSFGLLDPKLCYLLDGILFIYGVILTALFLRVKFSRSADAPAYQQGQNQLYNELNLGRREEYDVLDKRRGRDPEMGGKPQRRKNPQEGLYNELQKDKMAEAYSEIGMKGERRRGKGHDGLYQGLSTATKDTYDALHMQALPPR

This test addresses human CD3 (human, UniProt P07766 23-207; P09693 23-182; P04234 22-171; P20963 22-164). As to the kind of experiment: flow cytometry, Jurkat T cells.
For the molecule B1, a half-maximal effect (EC50) was put at 1.3 nM. B2: the EC50 (as a rule, the concentration needed to bring the measured effect to its halfway point) stood at 0.87 nM. The molecule B3 returned a concentration for a half-maximal effect (EC50) of 1.7 nM.

(Values after patent US20180273622A1 (published 2018).)
